Laboratory results: patent US20190367619A1 (ARGENX, published 2019)

Tests used:
[1] = molecular target: T1, human galectin-10-His (recombinant human galectin-10 with TEV-cleavable N-terminal His-tag) (human); assay: BLI tandem on galectin-10-His; competitor: saturating 2C07 mIgG1 (10 ug/mL)
T1 construct: SEC-MALLS: dimer in solution; also called Gal10-His; humanGal10-His
T1 chain: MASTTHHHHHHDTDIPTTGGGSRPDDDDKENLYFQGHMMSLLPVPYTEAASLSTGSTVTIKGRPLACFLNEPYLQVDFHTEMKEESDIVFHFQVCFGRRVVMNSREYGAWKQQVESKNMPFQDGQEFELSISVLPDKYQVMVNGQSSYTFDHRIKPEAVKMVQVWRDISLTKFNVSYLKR
In short: (§1)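 Tandem BLI binning: antigen captured via His-tag, blocked with one antibody in excess, then probed with a second at suboptimal level.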

[2] = molecular target: T1, human galectin-10-His (recombinant …); assay: Biacore capture approach (summary table), mouse IgG1
Protocol: The binding capacity of the mouse IgG1 antibodies to galectin-10 was analyzed on Biacore T3000. For this purpose, a capture approach was set up. A CM5 Chip was coated with polyclonal anti-mouse Fc at 8000 RU, then a fixed concentration of the mouse IgG1 antibody panel (1.5 μg/mL), diluted in HBS-EP pH7.4, was captured to reach a binding signal around 150 RU. Finally, a serial dilution of galectin-10-His (serial dilution, 1 over 2 from 5 μg/mL) diluted in HBS-EP pH7.4 was injected. Raw data were analyzed via BIA evaluation software with a blank subtraction (4-3). The kd/KD and Rmax of each mAb to galectin-10-His was determined using the Fit Kinetics simultaneous ka/kd/Binding with mass transfer/Local Rmax on BIA evaluation software.

[3] = molecular target: T1, human galectin-10-His (recombinant …); assay: BLI tandem on galectin-10-His; competitor: saturating 6F06 mIgG1 (10 ug/mL)
In short: as §1

[4] = molecular target: T2, cynomolgus galectin-10-His, YRT isoform (cynomolgus); assay: ELISA, mouse IgG1 on coated cynoGal10-His_YRT (0.5 ug/mL)
T2 construct: not shown: His tag
T2 chain: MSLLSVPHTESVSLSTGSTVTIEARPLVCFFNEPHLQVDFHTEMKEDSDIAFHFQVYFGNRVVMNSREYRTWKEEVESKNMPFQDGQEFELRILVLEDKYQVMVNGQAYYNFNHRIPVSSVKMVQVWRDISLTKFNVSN
Protocol: In a similar setup to that used during the characterization of the scFv-human Fc molecules, the relative binding properties of the 7 mouse IgG1 antibodies were analyzed by ELISA. A Maxisorp plate was coated overnight with 0.5 μg/mL of human or cynomolgus WGS or YRT isoform of galectin-10-His. Then a serial dilution of each clone (from 100 nM, dilution 1/4, 12 points of dilutions) was incubated on coated galectin-10. After several washing steps, detection of the bound mouse IgG1 was carried out with an anti-mouse Fc-HRP antibody (DAMPO, Jackson ImmunoResearch, Catalog 715-035-150). Absorbance was measured at 450 nm (reference at 620 nm) with Tecan instrument. The raw data (OD values) were plotted on GraphPad Prism 7.01. The EC50 values for each antibody, calculated with a non-linear regression (log(agonist) vs. response Variable slope (four parameters)), are shown in the table below. Antibody 1D11 from the previous panel was included for comparison.

[5] = molecular target: T1, human galectin-10-His (recombinant …); assay: SPR Biacore T3000, mouse IgG1 captured by anti-mouse Fc, galectin-10-His as analyte
In short: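 Polyclonal anti-mouse Fc on a CM5 chip (8000 RU) captured each mouse IgG1 (1.5 μg/mL) to around 150 RU. Galectin-10-His was then injected as a 1:2 serial dilution from 5 μg/mL in HBS-EP pH7.4. After blank subtraction, kd/KD and Rmax came from a simultaneous ka/kd fit with mass transfer and local Rmax.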

[6] = molecular target: T1, human galectin-10-His (recombinant …); assay: ELISA, mouse IgG1 on coated galectin-10-His (0.2 ug/mL)
In short: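 Serial dilutions of each antibody (from 100 nM, 1/4 steps, 12 points) were incubated on plates coated overnight with the antigen. Bound IgG1 detected with anti-mouse Fc-HRP, absorbance at 450 nm (reference 620 nm). EC50 from four-parameter variable-slope non-linear regression of OD values.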

binding signal (nm) [1]: 0.02 nm | Kd [2]: 1 nM | koff [2]: 0.00529 s⁻¹ | binding signal (nm) [3]: 0.03 nm | binding result [4]: no binding | Kd [5]: 1 nM | koff [5]: 0.00529 s⁻¹ | Bmax [6]: 1.5 OD | EC50 [6]: 0.1 nM
B1: 1D11 mouse IgG1 (antibody, V domains shown)
VH: QVQLVESGGGLVQPGGSLRLSCAASGFTFDDYAMSWVRQAPGKGLEWVSGISWNGGSTYYAESMKGRFTISRDNAKNTLYLQMNSLKSEDTAVYYCAKDRNLGYRLGYPYDYWGQGTQVTVSS
VL: QSVLTQPPSVSGSPGETVTISCAGTSSDVGYGNYVSWYQQLPGMAPRLLIYEVNKRASGITDRFSGSKSGNTASLTISGLQSEDEGDYYCASYRSSNNAVFGGGTHLTVL
notes: VH on mouse IgG1 heavy chain constant domains (CH1-CH2-CH3), VL on mouse lambda light chain constant domain; also called 1D011; 1D11 mIgG1
